# Experimental data as given in US20150104388A1.
# Target: PAC1 receptor (human) (UniProt P41586)
# Assay: cell-based or functional assay
# PAC1 receptor (human), sequence (P41586 21-468): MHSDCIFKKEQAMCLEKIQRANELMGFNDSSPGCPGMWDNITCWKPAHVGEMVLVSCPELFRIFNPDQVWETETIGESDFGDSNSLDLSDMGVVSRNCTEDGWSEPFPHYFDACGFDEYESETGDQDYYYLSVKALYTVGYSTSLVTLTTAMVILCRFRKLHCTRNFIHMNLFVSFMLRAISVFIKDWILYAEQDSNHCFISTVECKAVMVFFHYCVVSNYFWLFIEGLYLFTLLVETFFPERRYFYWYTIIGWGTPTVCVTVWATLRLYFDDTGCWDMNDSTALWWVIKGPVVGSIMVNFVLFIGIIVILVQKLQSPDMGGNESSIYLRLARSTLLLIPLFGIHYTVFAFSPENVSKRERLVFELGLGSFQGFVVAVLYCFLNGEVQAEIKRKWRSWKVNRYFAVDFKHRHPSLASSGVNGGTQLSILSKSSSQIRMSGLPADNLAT
substance,measurement,value
PACAP38 analog with nipecotic acid in position 3 (peptide),"fold lower potency as inhibitor of multiple myeloma cell proliferation, against the corresponding analog with pipecolic acid in position 3",10000 fold
